# Where two headings read alike, the source gives them in different places.
# B1: LS5-/LS7- (dsDNA)
# DNA 1: GGGCTAAAAAAAAAGTAAAATAGAAAAAAAAAGAGGG
# DNA 2: CCCTCTTTTTTTTTCTATTTTACTTTTTTTTTAGCCC
# B2: LS5/LS7 (dsDNA)
# DNA 1: GGGCTATGACGTAAGTAAAATAGTGACGTAGAGAGGG
# DNA 2: CCCTCTCTACGTCACTATTTTACTTACGTCATAGCCC
# B3: Full-length Arabidopsis thaliana NPR1 (NPR1–Strep, insect cells), P93002 1-593 (natural protein)
# chain: MDTTIDGFADSYEISSTSFVATDNTDSSIVYLAAEQVLTGPDVSALQLLSNSFESVFDSPDDFYSDAKLVLSDGREVSFHRCVLSARSSFFKSALAAAKKEKDSNNTAAVKLELKEIAKDYEVGFDSVVTVLAYVYSSRVRPPPKGVSECADENCCHVACRPAVDFMLEVLYLAFIFKIPELITLYQRHLLDVVDKVVIEDTLVILKLANICGKACMKLLDRCKEIIVKSNVDMVSLEKSLPEELVKEIIDRRKELGLEVPKVKKHVSNVHKALDSDDIELVKLLLKEDHTNLDDACALHFAVAYCNVKTATDLLKLDLADVNHRNPRGYTVLHVAAMRKEPQLILSLLEKGASASEATLEGRTALMIAKQATMAVECNNIPEQCKHSLKGRLCVEILEQEDKREQIPRDVPPSFAVAADELKMTLLDLENRVALAQRLFPTEAQAAMEIAEMKGTCEFIVTSLEPDRLTGTKRTSPGVKIAPFRILEEHQSRLKALSKTVELGKRFFPRCSAVLDQIMNCEDLTQLACGEDDTAEKRLQKKQRYMEIQETLKKAFSEDNLELGNSSLTDSTSSTSKSTGGKRSNRKLSHRRR
# B4: Arabidopsis TGA3 (Asn87–Thr384) (domain or fragment, Arabidopsis thaliana, UniProt Q39234 87-384, looked up)
# chain: NNDQDEDRINDKMKRRLAQNREAARKSRLRKKAHVQQLEESRLKLSQLEQELVRARQQGLCVRNSSDTSYLGPAGNMNSGIAAFEMEYTHWLEEQNRRVSEIRTALQAHIGDIELKMLVDSCLNHYANLFRMKADAAKADVFFLMSGMWRTSTERFFQWIGGFRPSELLNVVMPYVEPLTDQQLLEVRNLQQSSQQAEEALSQGLDKLQQGLVESIAIQIKVVESVNHGAPMASAMENLQALESFVNQADHLRQQTLQQMSKILTTRQAARGLLALGEYFHRLRALSSLWAARPREHT
# B5: NPR1 BTB/BHB (Thr39–Lys262) npr1(C82A) (domain or fragment, Arabidopsis thaliana, UniProt P93002 39-262, looked up)
# chain: TGPDVSALQLLSNSFESVFDSPDDFYSDAKLVLSDGREVSFHRAVLSARSSFFKSALAAAKKEKDSNNTAAVKLELKEIAKDYEVGFDSVVTVLAYVYSSRVRPPPKGVSECADENCCHVACRPAVDFMLEVLYLAFIFKIPELITLYQRHLLDVVDKVVIEDTLVILKLANICGKACMKLLDRCKEIIVKSNVDMVSLEKSLPEELVKEIIDRRKELGLEVPK
# B6: WT NPR1 BTB/BHB (Thr39–Lys262) (domain or fragment, Arabidopsis thaliana, UniProt P93002 39-262, looked up)
# chain: TGPDVSALQLLSNSFESVFDSPDDFYSDAKLVLSDGREVSFHRCVLSARSSFFKSALAAAKKEKDSNNTAAVKLELKEIAKDYEVGFDSVVTVLAYVYSSRVRPPPKGVSECADENCCHVACRPAVDFMLEVLYLAFIFKIPELITLYQRHLLDVVDKVVIEDTLVILKLANICGKACMKLLDRCKEIIVKSNVDMVSLEKSLPEELVKEIIDRRKELGLEVPK
# B7: NPR1 BTB/BHB (Thr39–Lys262) npr1(C212V/C216A/C223L) (domain or fragment, Arabidopsis thaliana, UniProt P93002 39-262, looked up)
# chain: TGPDVSALQLLSNSFESVFDSPDDFYSDAKLVLSDGREVSFHRCVLSARSSFFKSALAAAKKEKDSNNTAAVKLELKEIAKDYEVGFDSVVTVLAYVYSSRVRPPPKGVSECADENCCHVACRPAVDFMLEVLYLAFIFKIPELITLYQRHLLDVVDKVVIEDTLVILKLANIVGKAAMKLLDRLKEIIVKSNVDMVSLEKSLPEELVKEIIDRRKELGLEVPK
# Legend:
# TGA3 NID = target: T1, TGA3 NID (Arabidopsis thaliana, UniProt Q39234); test: X-ray crystal structure; type: binding; details: co-purified from E. coli expression; crystals at pH 5.0, 20 °C
# T1 sequence (Q39234 160-384): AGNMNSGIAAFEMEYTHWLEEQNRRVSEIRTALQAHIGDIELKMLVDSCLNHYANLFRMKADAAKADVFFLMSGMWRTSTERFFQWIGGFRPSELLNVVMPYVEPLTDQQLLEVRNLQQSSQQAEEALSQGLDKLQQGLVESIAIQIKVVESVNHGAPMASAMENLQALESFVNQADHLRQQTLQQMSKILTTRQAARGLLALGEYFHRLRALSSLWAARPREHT
# TGA3 [1] = target: T2, TGA3 (Arabidopsis thaliana, UniProt Q39234 87-384); test: EMSA
# T2 sequence: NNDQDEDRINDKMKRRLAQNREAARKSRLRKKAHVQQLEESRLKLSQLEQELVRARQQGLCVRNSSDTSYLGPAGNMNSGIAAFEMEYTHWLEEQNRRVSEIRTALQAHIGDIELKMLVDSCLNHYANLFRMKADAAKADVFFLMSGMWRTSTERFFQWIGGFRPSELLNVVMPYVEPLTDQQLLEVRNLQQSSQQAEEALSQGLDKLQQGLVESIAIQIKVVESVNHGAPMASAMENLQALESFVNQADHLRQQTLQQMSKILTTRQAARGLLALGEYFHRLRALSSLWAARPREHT
# NPR1 = NPR1 (Arabidopsis thaliana, UniProt P93002 1-593); test: EMSA
# TGA3 [2] = target: T2, TGA3; test: EMSA; remark: listed apart in the source
# TGA3;NPR1 = TGA3;NPR1 (Arabidopsis thaliana;Arabidopsis …, UniProt Q39234;P93002 87-384;1-593, |); test: EMSA
# [3] = target: T3, Full-length Arabidopsis thaliana NPR1 (NPR1–Strep, insect cells) (Arabidopsis thaliana), P93002; test: cross-linking; details: remark: other sources report otherwise
# T3 chain: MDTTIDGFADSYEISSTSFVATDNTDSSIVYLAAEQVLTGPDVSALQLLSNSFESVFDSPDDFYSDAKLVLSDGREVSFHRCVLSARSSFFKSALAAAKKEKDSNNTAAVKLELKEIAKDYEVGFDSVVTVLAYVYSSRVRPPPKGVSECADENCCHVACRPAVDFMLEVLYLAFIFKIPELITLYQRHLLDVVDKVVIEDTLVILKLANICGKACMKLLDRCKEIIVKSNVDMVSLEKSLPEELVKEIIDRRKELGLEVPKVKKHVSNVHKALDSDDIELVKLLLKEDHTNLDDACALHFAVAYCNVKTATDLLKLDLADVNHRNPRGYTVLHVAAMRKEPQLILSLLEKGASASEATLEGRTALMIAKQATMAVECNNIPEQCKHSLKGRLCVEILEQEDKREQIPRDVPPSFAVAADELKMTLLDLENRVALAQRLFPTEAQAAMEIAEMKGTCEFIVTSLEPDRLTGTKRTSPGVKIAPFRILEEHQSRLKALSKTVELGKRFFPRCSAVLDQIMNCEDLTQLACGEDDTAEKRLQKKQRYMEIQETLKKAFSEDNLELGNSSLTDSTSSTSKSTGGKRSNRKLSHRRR
# [4] = target: T4, Full-length Arabidopsis NPR1 (NPR1–Strep3, E. coli) (Arabidopsis thaliana, UniProt P93002 1-593); test: cryo-EM structure
# T4 sequence (looked up): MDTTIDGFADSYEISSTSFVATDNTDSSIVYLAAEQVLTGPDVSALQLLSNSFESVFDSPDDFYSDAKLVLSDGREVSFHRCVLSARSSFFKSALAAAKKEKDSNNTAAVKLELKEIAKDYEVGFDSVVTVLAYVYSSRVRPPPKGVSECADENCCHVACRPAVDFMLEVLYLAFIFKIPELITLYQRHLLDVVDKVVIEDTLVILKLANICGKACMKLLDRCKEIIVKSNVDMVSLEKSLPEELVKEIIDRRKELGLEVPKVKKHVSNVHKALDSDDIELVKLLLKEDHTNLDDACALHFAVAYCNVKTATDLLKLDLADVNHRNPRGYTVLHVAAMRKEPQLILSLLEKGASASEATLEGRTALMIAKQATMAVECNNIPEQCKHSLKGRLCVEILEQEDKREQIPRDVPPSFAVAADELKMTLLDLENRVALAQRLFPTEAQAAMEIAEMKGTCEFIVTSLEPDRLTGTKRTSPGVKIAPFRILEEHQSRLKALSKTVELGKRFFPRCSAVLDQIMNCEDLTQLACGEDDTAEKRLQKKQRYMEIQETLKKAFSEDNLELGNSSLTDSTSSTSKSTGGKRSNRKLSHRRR
# [5] = target: the molecule itself; test: oxidation with hydrogen peroxide, non-reducing SDS–PAGE
molecule,measurement,setting,value
CCCCCCCCCCCCCCCC(=O)O [palmitic acid],X-ray crystal structure (1.5 Å); LC-ESI/MS of extracted lipid,TGA3 NID,a palmitic acid was found inside the NID
B1,binding result,TGA3 [1],no binding
B2,binding result,NPR1,no binding
same,binding result,TGA3 [2],binds
same,binding result,TGA3;NPR1,binds
B3,stoichiometry N,[3],2
B4,binding result,[4],binds
B5,binding result,[5],binds
B6,binding result,[5],binds
B7,binding result,[5],binds
